From paper PMC12912276 (Nature cell biology, 2025)

Biological target: T1, His-SUMO-C-GB1 (SETD2 region C) (UniProt Q9BYW2 817-1322)
T1 sequence (looked up): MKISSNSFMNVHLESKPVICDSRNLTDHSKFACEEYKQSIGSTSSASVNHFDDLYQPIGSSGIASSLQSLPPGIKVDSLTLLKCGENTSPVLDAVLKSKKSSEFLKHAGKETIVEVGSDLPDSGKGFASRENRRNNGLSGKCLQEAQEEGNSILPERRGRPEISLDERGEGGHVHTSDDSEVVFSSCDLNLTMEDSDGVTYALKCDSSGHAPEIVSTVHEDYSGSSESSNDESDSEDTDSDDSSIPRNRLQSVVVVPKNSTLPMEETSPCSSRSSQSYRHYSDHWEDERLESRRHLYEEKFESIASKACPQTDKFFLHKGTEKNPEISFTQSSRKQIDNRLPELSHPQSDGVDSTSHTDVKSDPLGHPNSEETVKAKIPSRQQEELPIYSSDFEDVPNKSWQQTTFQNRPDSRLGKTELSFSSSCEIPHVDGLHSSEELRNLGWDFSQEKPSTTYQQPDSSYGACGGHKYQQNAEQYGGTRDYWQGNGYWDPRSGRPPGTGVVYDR
Experiment: pull-down

binding result: binds
B1: GST-lamin A-CT (387-664 a.a.) (domain or fragment, human, UniProt P02545 387-664, looked up)
chain: LRLSPSPTSQRSRGRASSHSSQTQGGGSVTKKRKLESTESRSSFSQHARTSGRVAVEEVDEEGKFVRLRNKSNEDQSMGNWQIKRQNGDDPLLTYRFPPKFTLKAGQVVTIWAAGAGATHSPPTDLVWKAQNTWGCGNSLRTALINSTGEEVAMRKLVRSVTVVEDDEDEDGDDLLHHHHGSHCSSSGDPAEYNLRSRTVLCGTCGQPADKASASGSGAQVGGPISSGSSASSVTVTRSYRSVGGSGGGSFGDNLVTRSYLLGNSSPRTQSPQNCSIM
